Assay results published in paper doi:10.1101/089938.

Biological target: Alanine racemase (Alr) from Streptomyces coelicolor A3(2), His6-tagged (Streptomyces coelicolor A3(2)) (UniProt O86786)
Test: SEC

Alanine racemase (Alr) from Streptomyces coelicolor A3(2), His6-tagged (from UniProt O86786 1-391) (enzyme)
stoichiometry N: 2
